Assay results reported in US20250270339A1.
Changes are numbered by the printed parent chain. Names may count otherwise.

B1: TFR.15.WH8.1 2+2 anti-TfR bispecific antibody (bispecific antibody, part only; not given: isotype IgG backbone and linker, not shown: another chain or arm of the molecule; a dimerising Fc or GST; large carriers; small tags and cut ends)
scFv: QVQLVQSGAEVKKPGASVKVSCKASGYTFTSYYMHWVRQAPGQGLEWMGNIYPGSGSSNYAQKFQGRVTMTRDTSTSTVYMELSSLRSEDTAVYYCTRSSYYGNFDTMDNWGQGTTVTVSSGGSEGKSSGSGSESKSTGGSEIVLTQSPATLSLSPGERATLSCRASSSIRYMNWYQQKPGQAPRRLIYDTSNRATGIPARFSGSGSGTDFTLTISSLEPEDFAVYYCHQRSSYPWTFGGGTKVEIK
B2: TFR.15.WH8.1.42Q 2+2 anti-TfR bispecific antibody (bispecific antibody, part only; not given: isotype IgG backbone and linker, not shown: another chain or arm of the molecule; a dimerising Fc or GST; large carriers; small tags and cut ends)
scFv: B1 scFv with Y172Q
B3: TFR.15.WH8.1.26H 2+2 anti-TfR bispecific antibody (bispecific antibody, part only; not given: isotype IgG backbone and linker, not shown: another chain or arm of the molecule; a dimerising Fc or GST; large carriers; small tags and cut ends)
scFv: B1 scFv with Y102H
B4: TFR.15.WH8.1.24H 2+2 anti-TfR bispecific antibody (bispecific antibody, part only; not given: isotype IgG backbone and linker, not shown: another chain or arm of the molecule; a dimerising Fc or GST; large carriers; small tags and cut ends)
scFv: B1 scFv with S100H
B5: TFR.15.WH8.1.42S 2+2 anti-TfR bispecific antibody (bispecific antibody, part only; not given: isotype IgG backbone and linker, not shown: another chain or arm of the molecule; a dimerising Fc or GST; large carriers; small tags and cut ends)
scFv: B1 scFv with Y172S
B6: TFR.15.WH8.1.24N 2+2 anti-TfR bispecific antibody (bispecific antibody, part only; not given: isotype IgG backbone and linker, not shown: another chain or arm of the molecule; a dimerising Fc or GST; large carriers; small tags and cut ends)
scFv: B1 scFv with S100N
B7: TFR.15.WH8.1.42A 2+2 anti-TfR bispecific antibody (bispecific antibody, part only; not given: isotype IgG backbone and linker, not shown: another chain or arm of the molecule; a dimerising Fc or GST; large carriers; small tags and cut ends)
scFv: B1 scFv with Y172A
B8: TFR.15.WH8.1.42A.3x(G4S) 2+2 anti-TfR bispecific antibody (bispecific antibody, part only; not given: isotype IgG backbone and linker, not shown: another chain or arm of the molecule; a dimerising Fc or GST; large carriers; small tags and cut ends)
scFv: QVQLVQSGAEVKKPGASVKVSCKASGYTFTSYYMHWVRQAPGQGLEWMGNIYPGSGSSNYAQKFQGRVTMTRDTSTSTVYMELSSLRSEDTAVYYCTRSSYYGNFDTMDNWGQGTTVTVSSGGGGSGGGGSGGGGSEIVLTQSPATLSLSPGERATLSCRASSSIRAMNWYQQKPGQAPRRLIYDTSNRATGIPARFSGSGSGTDFTLTISSLEPEDFAVYYCHQRSSYPWTFGGGTKVEIK
B9: TFR.15.WH8.1.42A.L1 2+2 anti-TfR bispecific antibody (bispecific antibody, part only; not given: isotype IgG backbone and linker, not shown: another chain or arm of the molecule; a dimerising Fc or GST; large carriers; small tags and cut ends)
scFv: QVQLVQSGAEVKKPGASVKVSCKASGYTFTSYYMHWVRQAPGQGLEWMGNIYPGSGSSNYAQKFQGRVTMTRDTSTSTVYMELSSLRSEDTAVYYCTRSSYYGNFDTMDNWGQGTTVTVSSSPNSASHSGSAPQTSSAPGSQEIVLTQSPATLSLSPGERATLSCRASSSIRAMNWYQQKPGQAPRRLIYDTSNRATGIPARFSGSGSGTDFTLTISSLEPEDFAVYYCHQRSSYPWTFGGGTKVEIK
B10: TFR.15.WH8.1.42A.LH 2+2 anti-TfR bispecific antibody (bispecific antibody, part only; not given: isotype IgG backbone and linker, not shown: another chain or arm of the molecule; a dimerising Fc or GST; large carriers; small tags and cut ends)
scFv: EIVLTQSPATLSLSPGERATLSCRASSSIRAMNWYQQKPGQAPRRLIYDTSNRATGIPARFSGSGSGTDFTLTISSLEPEDFAVYYCHQRSSYPWTFGGGTKVEIKGGSEGKSSGSGSESKSTGGSQVQLVQSGAEVKKPGASVKVSCKASGYTFTSYYMHWVRQAPGQGLEWMGNIYPGSGSSNYAQKFQGRVTMTRDTSTSTVYMELSSLRSEDTAVYYCTRSSYYGNFDTMDNWGQGTTVTVSS

Experiments:
[1] = molecular target: Cyno TfR apical permuted N-term Avi-His (cynomolgus); test: SPR (Carterra LSA), 2+2 captured
Sequence of Cyno TfR apical permuted N-term Avi-His (cynomolgus) (chain, as listed by the source limits assumed): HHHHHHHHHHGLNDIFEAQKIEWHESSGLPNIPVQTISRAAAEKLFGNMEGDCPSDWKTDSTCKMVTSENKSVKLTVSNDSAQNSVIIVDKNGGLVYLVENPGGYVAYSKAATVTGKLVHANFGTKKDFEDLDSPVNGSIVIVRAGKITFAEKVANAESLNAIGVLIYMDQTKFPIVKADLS

[2] = molecular target: huTfR Apical Domain-Avi-His (human); test: SPR (Carterra LSA), 2+2 captured
Sequence of huTfR Apical Domain-Avi-His (human) (chain, as listed by the source limits assumed): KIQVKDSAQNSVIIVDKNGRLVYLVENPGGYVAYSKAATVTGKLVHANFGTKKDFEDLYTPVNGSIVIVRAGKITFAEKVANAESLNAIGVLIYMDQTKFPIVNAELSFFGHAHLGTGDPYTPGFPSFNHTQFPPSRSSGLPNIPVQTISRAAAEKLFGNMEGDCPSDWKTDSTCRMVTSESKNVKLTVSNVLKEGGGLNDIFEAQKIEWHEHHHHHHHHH

Binder | Kd [1] [nM] | Kd [2] [nM]
B1 | 17 | 28
B2 | 40 | 62
B3 | 2200 | 280
B4 | 2.6 | 5.6
B5 | 690 | 510
B6 | 47 | 140
B7 | 88 | 160
B8 | 74 | 
B9 | 100 | 150
B10 | 60 | 190
